“Also recorded” adds a separate entry of the source. Primed or numbered codes have the meaning given here. Where no end group is shown, it is not given here. FITC′ = fluorescein isothiocyanate; Ahx = NCCCCCC(=O)O
Assays:
[1] = target: T1, PP1γ catalytic domain (residues 7–300)-H6 (mouse, UniProt P63087 7-300); experiment: fluorescence polarisation; direct titration of PP1γ catalytic domain against FITC-GADD34 peptide in the buffer optimised for pUL21 (Tris pH 8.5 in place of HEPES pH 8); conditions: both partners purified
T1 construct: mouse PP1γ catalytic domain, residues 7-300; no tag cleavage is described; also called PP1 catalytic domain; protein phosphatase 1; source: E. coli T7 Express lysY/Iq, purified (Ni-NTA, SEC)

[2] = target: T1, PP1γ catalytic domain (residues …); experiment: fluorescence polarisation; direct titration: 2 nM FITC-GADD34 peptide with a serial dilution of PP1γ catalytic domain; 50 mM HEPES pH 8.0, 500 mM NaCl, 0.05% TWEEN-20; 27 °C; one-site binding model; conditions: both partners purified
[3] = target: T1, PP1γ catalytic domain (residues …); experiment: ITC; 25 °C; 50 mM HEPES pH 8.0, 500 mM NaCl, 0.5 mM TCEP; 12 x 3 μl injections; peptide or pORF38-NLT titrated into PP1γ catalytic domain; one-site binding model; syringe and cell contents in Table S1; conditions: both partners purified
[4] = target: T1, PP1γ catalytic domain (residues …); experiment: fluorescence polarisation; competition: serial dilution of competitor added to a pre-formed complex of 2 nM FITC-GADD34 peptide and 250 nM PP1γ catalytic domain (final); 50 mM HEPES pH 8.0, 500 mM NaCl, 0.05% TWEEN-20; 27 °C; conditions: both partners purified
[5] = target: T1, PP1γ catalytic domain (residues …); experiment: fluorescence polarisation; competition: increasing pUL21 added to a pre-formed complex of 2 nM FITC-GADD34 peptide and 250 nM PP1γ catalytic domain; Tris pH 8.5 in place of HEPES pH 8; conditions: both partners purified
endogenous PP1α [6] = experiment: GFP affinity capture / co-IP of endogenous PP1α with GFP-tagged bait; type: binding, human; conditions: HEK 293T cells, 24 h post-transfection, GFP-Trap, immunoblot; representative of two independent experiments
endogenous PP1β = conditions: HEK 293T cells; cited from earlier work
From the text: (§1) HSV-1 pUL21 was recently identified as a novel viral PP1 regulatory protein that promotes virus replication and spread. HSV-1 pUL21 and its homologues across the alphaherpesviruses comprise two folded domains ([21], [22]) that are linked by a flexible linker domain ([23]). PP1 binding to pUL21 requires a novel SLiM, termed the Twenty-one Recruitment Of Protein Phosphatase One (TROPPO) motif, that is present in the linker region and is conserved across alphaherpesviruses.

endogenous PP1α [7] = conditions: HEK 293T cells; cited from earlier work
From the text: as §1

endogenous PP1γ = conditions: HEK 293T cells; cited from earlier work
From the text: as §1

[8] = target: T2, PP1γ catalytic domain : GADD34 peptide pre-formed complex (Mus musculus, UniProt P63087); experiment: Competition fluorescence anisotropy in Tris pH 8.5 buffer; type: binding; conditions: 2 nM fluorescent GADD34 peptide + 250 nM PP1γ
T2 construct: mouse PP1γ catalytic domain (residues 7–300)-H6; His6 (C); made in house; host or cells: E. coli T7 Express lysY/Iq (PP1γ); tracer peptide synthesised by GenScript
Procedure: Similar competition fluorescence anisotropy experiments with purified full-length pUL21 (Fig. 5E) were performed in a buffer optimized to enhance solubility of the protein (Tris pH 8.5 in place of HEPES pH 8). […] To test whether optimization of the TROPPO sequence to better match a canonical RVxF motif could enhance binding, we generated, expressed and purified a pUL21-H6 mutant where residues A237 and V239 had been substituted for valine and phenylalanine, respectively (pUL21-RVxF, Fig. 5E).
Bacterial expression plasmids encoding the mouse PP1γ catalytic domain (residues 7–300)-H6 and pUL21-H6, and mammalian expression vectors encoding pUL21(FV242AA)-GFP, pORF38-GFP and pORF38(FV255AA)-GFP, were described previously ([23]). We note that the mouse and human PP1γ catalytic domains share 100% amino acid identity. pORF38-NLT-H6 was generated by sub-cloning residues 1 to 263 of ORF38 into the vector pOPTnH ([52]). pUL21-RVxF-H6 was generated by inserting the mutations A237V and V239F into pUL21-H6 by QuikChange site-directed mutagenesis. Human PP1α was cloned from HeLa cell cDNA into a vector derived from pF5K (Promega) with an N-terminal Myc epitope tag via restriction-based cloning, and point mutations were introduced into Myc-PP1α by QuikChange mutagenesis. […]
Proteins were expressed using E. coli T7 Express lysY/I^q cells (New England Biolabs) grown in 2 × TY medium at 37 °C to OD600 0.8 to 1.2 before cooling to 22 °C and induction of protein expression using 0.4 mM IPTG. […] Fractions were analysed by SDS-PAGE and those containing the desired protein were pooled, concentrated using centrifugal concentrators (Millipore) and stored at 4 °C (short-term) or snap-frozen in liquid nitrogen for long-term storage at −70 °C.
Fluorescence anisotropy was measured using a SpectraMax i3 microplate reader (Molecular Devices) with wavelengths 485 ± 20 nm (excitation) and 535 ± 25 nm (emission). […]

T1 sequence (P63087 7-300): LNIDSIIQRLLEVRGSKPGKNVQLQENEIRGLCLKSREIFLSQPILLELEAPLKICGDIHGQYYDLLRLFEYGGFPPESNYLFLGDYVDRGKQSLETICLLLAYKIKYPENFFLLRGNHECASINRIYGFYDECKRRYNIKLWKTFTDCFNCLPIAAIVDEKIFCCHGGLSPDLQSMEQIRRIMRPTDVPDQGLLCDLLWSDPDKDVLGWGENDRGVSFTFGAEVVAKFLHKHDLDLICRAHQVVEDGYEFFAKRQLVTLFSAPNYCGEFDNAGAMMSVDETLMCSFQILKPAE
T2 sequence (P63087 7-300, one chain of several): as the sequence (P63087 7-300) above

B1: GADD34 RVxF+ϕϕ[xF] peptide (residues 552–568), FITC-labelled (peptide)
peptide: {FITC′-Ahx}-KARKVRFSEKVTVHFLA
notes: GADD34 (PP1 regulatory subunit 15A), residues 552-568, RVxF and ϕϕ[xF] motifs; also called fluorescent GADD34 peptide; GADD34 peptide; source: synthetic peptide (GenScript, >95% purity)
Q: For B1, which Kd [1] is on record?
A: 55 nM

Q: And the Kd [2]?
A: 144 nM

B2: pORF38-NLT-H6 (domain or fragment)
chain: MEFPYHSTVSYNGVTFYFNERATRAYFICGGCLISIPRKHGGEIAKFGHVVRGVGPGDRSVASYVRSELNRTGKTWAVSSNNNCVFLDRVALLAAGSGAVDRDLCGTFDVEVEDPTLADYLVSLPVTHLTLVAGVDVTRENKLKLFPTPTAINTTNGFMYVPNEASFSLVYMRMLELPESLQELVSGLFDGTPEIRDALNGSNDDEKTSIIVSRRAADVVTEDVKADDVPISGEPYSEKQPRRRKKSDHITLSNFVQIRTIPR
notes: VZV pORF38 residues 1-263: N-terminal domain plus linker up to the end of the TROPPO motif (NLT region); Sub-cloned into the vector pOPTnH; also called pOPF38-NLT; source: E. coli T7 Express lysY/Iq, purified (Ni-NTA, SEC); not shown: His6, C-terminal, kept
Q: Which results are given for B2?
A: Kd [3]: 497 nM; stoichiometry N [3]: 1; IC50 [4]: 417 nM

B3: pUL21-RVxF-H6 (natural protein)
chain: MELSYATTMHYRDVVFYVTTDRNRAYFVCGGCVYSVGRPCASQPGEIAKFGLVVRGTGPDDRVVANYVRSELRQRGLQDVRPIGEDEVFLDSVCLLNPNVSSELDVINTNDVEVLDECLAEYCTSLRTSPGVLISGLRVRAQDRIIELFEHPTIVNVSSHFVYTPSPYVFALAQAHLPRLPSSLEALVSGLFDGIPAPRQPLDAHNPRTDVVITGRRAPRPIAGSGAGSGGAGAKRVTFSEFVQVKHIDRVGPAGVSPAPPPNNTDSSSLVPGAQDSAPPGPTLRELWWVFYAADRALEEPRADSGLTREEVRAVRGFREQAWKLFGSAGAPRAFIGAALGLSPLQKLAVYYYIIHRERRLSPFPALVRLVGRYTQRHGLYVPRPDDPVLADAINGLFRDALAAGTTAEQLLMFDLLPPKDVPVGSDVQADSTALLRFIESQRLAVPGGVISPEHVAYLGAFLSVLYAGRGRMSAATHTARLTGVTSLVLAVGDVDRLSAFDRGAAGAASRTRAAGYLDVLLTVRLARSQHGQSV
notes: methods, results and legend print V239F; also called pUL21 A237V + V239F (RVxF) mutant; source: E. coli T7 Express lysY/Iq, purified (Ni-NTA, SEC); not shown: His6, C-terminal, kept
Q: For B3, which IC50 [5] is on record?
A: 337 nM

B4: pUL21-GFP (protein)
chain: MELSYATTMHYRDVVFYVTTDRNRAYFVCGGCVYSVGRPCASQPGEIAKFGLVVRGTGPDDRVVANYVRSELRQRGLQDVRPIGEDEVFLDSVCLLNPNVSSELDVINTNDVEVLDECLAEYCTSLRTSPGVLISGLRVRAQDRIIELFEHPTIVNVSSHFVYTPSPYVFALAQAHLPRLPSSLEALVSGLFDGIPAPRQPLDAHNPRTDVVITGRRAPRPIAGSGAGSGGAGAKRATVSEFVQVKHIDRVGPAGVSPAPPPNNTDSSSLVPGAQDSAPPGPTLRELWWVFYAADRALEEPRADSGLTREEVRAVRGFREQAWKLFGSAGAPRAFIGAALGLSPLQKLAVYYYIIHRERRLSPFPALVRLVGRYTQRHGLYVPRPDDPVLADAINGLFRDALAAGTTAEQLLMFDLLPPKDVPVGSDVQADSTALLRFIESQRLAVPGGVISPEHVAYLGAFLSVLYAGRGRMSAATHTARLTGVTSLVLAVGDVDRLSAFDRGAAGAASRTRAAGYLDVLLTVRLARSQHGQSV
modifications: left off: GFP (from the vector pEGFP-N1), end not stated, kept
Q: Which “Co-IP of endogenous PP1α” value (endogenous PP1α [6]) does the source give for B4 here?
A: efficiently precipitate endogenous PP1α

Q: What about the “Co-precipitation of endogenous PP1β” value (endogenous PP1β) of the same molecule?
A: co-precipitates with endogenous PP1α, PP1β and PP1γ

Q: And the “Co-precipitation of endogenous PP1α” value (endogenous PP1α [7])?
A: co-precipitates with endogenous PP1α, PP1β and PP1γ

Q: And the “Co-precipitation of endogenous PP1γ” value (endogenous PP1γ)?
A: co-precipitates with endogenous PP1α, PP1β and PP1γ

B5: pUL21-RVxF: pUL21-H6 with mutations A237V and V239F (protein)
chain: MELSYATTMHYRDVVFYVTTDRNRAYFVCGGCVYSVGRPCASQPGEIAKFGLVVRGTGPDDRVVANYVRSELRQRGLQDVRPIGEDEVFLDSVCLLNPNVSSELDVINTNDVEVLDECLAEYCTSLRTSPGVLISGLRVRAQDRIIELFEHPTIVNVSSHFVYTPSPYVFALAQAHLPRLPSSLEALVSGLFDGIPAPRQPLDAHNPRTDVVITGRRAPRPIAGSGAGSGGAGAKRVTFSEFVQVKHIDRVGPAGVSPAPPPNNTDSSSLVPGAQDSAPPGPTLRELWWVFYAADRALEEPRADSGLTREEVRAVRGFREQAWKLFGSAGAPRAFIGAALGLSPLQKLAVYYYIIHRERRLSPFPALVRLVGRYTQRHGLYVPRPDDPVLADAINGLFRDALAAGTTAEQLLMFDLLPPKDVPVGSDVQADSTALLRFIESQRLAVPGGVISPEHVAYLGAFLSVLYAGRGRMSAATHTARLTGVTSLVLAVGDVDRLSAFDRGAAGAASRTRAAGYLDVLLTVRLARSQHGQSV
modifications: left off: His6, C-terminal, kept
notes: pUL21-H6 with mutations A237V and V239F
Q: For B5, which “Competition with GADD34 peptide for PP1 binding” value [8] is on record?
A: competes with the GADD34 peptide for binding to the PP1 hydrophobic groove; also recorded: the ability to compete with the GADD34 peptide for PP1 binding
